Test results as given in patent US6933368.

Target: CD33 antigen (UniProt P20138)
Assay: competitive binding against 125I-murine M195 on HL60 cells

Chain of UniProt P20138 (P20138 18-364 limits assumed): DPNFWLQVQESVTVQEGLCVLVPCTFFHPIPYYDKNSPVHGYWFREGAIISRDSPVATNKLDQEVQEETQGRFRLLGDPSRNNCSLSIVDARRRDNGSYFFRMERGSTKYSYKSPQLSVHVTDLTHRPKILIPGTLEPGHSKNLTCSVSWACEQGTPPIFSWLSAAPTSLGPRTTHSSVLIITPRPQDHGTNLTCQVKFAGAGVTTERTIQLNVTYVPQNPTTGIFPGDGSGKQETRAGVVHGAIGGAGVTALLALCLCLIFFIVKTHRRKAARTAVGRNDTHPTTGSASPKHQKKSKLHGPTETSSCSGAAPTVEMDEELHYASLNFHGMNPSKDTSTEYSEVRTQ

## aglycosylated chimeric M195 antibody
  fold increase in binding affinity against the chimeric antibody: 8 fold

## murine M195 antibody
  Ka: 2e+09 M⁻¹

B1: humanized M195 antibody (antibody, INN chains, looked up, human IgG1, V domains shown)
VH: QVQLVQSGAEVKKPGSSVKVSCKASGYTFTDYNMHWVRQAPGQGLEWIGYIYPYNGGTGYNQKFKSKATITADESTNTAYMELSSLRSEDTAVYYCARGRPAMDYWGQGTLVTVSS
VL: DIQMTQSPSSLSASVGDRVTITCRASESVDNYGISFMNWFQQKPGKAPKLLIYAASNQGSGVPSRFSGSGSGTDFTLTISSLQPDDFATYYCQQSKEVPWTFGQGTKVEIK
  fold increase in binding affinity against the chimeric (or murine) antibody: 8 fold
